{
  "source": "patent US11653679B2",
  "about": "“High-purity steviol glycosides” (PureCircle Sdn Bhd, priority 2014, dated 2023)",
  "molecules": {"B1": {"name": "UGT76G1var7: UGT76G1 variant, mutations F22L_I43V_A239V (protein, UniProt Q6VAB4 1-458, looked up, variant F22L I43V A239V)", "UDP-glycosyltransferase 76G1": "MENKTETTVRRRRRIILFPVPLQGHINPILQLANVLYSKGFSVTIFHTNFNKPKTSNYPHFTFRFILDNDPQDERISNLPTHGPLAGMRIPIINEHGADELRRELELLMLASEEDEEVSCLITDALWYFAQSVADSLNLRRLVLMTSSLFNFHAHVSLPQFDELGYLDPDDKTRLEEQASGFPMLKVKDIKSAYSNWQILKEILGKMIKQTKASSGVIWNSFKELEESELETVIREIPVPSFLIPLPKHLTASSSSLLDHDRTVFQWLDQQPPSSVLYVSFGSTSEVDEKDFLEIARGLVDSKQSFLWVVRPGFVKGSTWVEPLPDGFLGERGRIVKWVPQQEVLAHGAIGAFWTHSGWNSTLESVCEGVPMIFSDFGLDQPLNARYMSDVLKVGVYLENGWERGEIANAIRRVMVDEEGEYIRQNARVLKQKADVSLMKGGSSYESLESLVSYISSL"}, "B2": {"name": "UGT76G1var11: UGT76G1 variant, mutations F22L_A33G_V310I (protein, UniProt Q6VAB4 1-458, looked up, variant F22L A33G V310I)", "UDP-glycosyltransferase 76G1": "B1 UDP-glycosyltransferase 76G1 with A33G, V43I, V239A, V310I"}, "B3": {"name": "UGT76G1var15: UGT76G1 variant, mutations F41L_L246F_Q425E (protein, UniProt Q6VAB4 1-458, looked up, variant F41L L246F Q425E)", "UDP-glycosyltransferase 76G1": "B1 UDP-glycosyltransferase 76G1 with L22F, F41L, V43I, V239A, L246F, Q425E"}, "B4": {"name": "UGT76G1var17: UGT76G1 variant, mutations F265L_Q266E_Q342K (protein, UniProt Q6VAB4 1-458, looked up, variant F265L Q266E Q342K)", "UDP-glycosyltransferase 76G1": "B1 UDP-glycosyltransferase 76G1 with L22F, V43I, V239A, F265L, Q266E, Q342K"}, "B5": {"name": "UGT76G1var13: UGT76G1 variant, mutations L243A_S357C_A385T (protein, UniProt Q6VAB4 1-458, looked up, variant L243A S357C A385T)", "UDP-glycosyltransferase 76G1": "B1 UDP-glycosyltransferase 76G1 with L22F, V43I, V239A, L243A, S357C, A385T"}, "B6": {"name": "UGT76G1var12: UGT76G1 variant, mutations L243P_K303G_A352G (protein, UniProt Q6VAB4 1-458, looked up, variant L243P K303G A352G)", "UDP-glycosyltransferase 76G1": "B1 UDP-glycosyltransferase 76G1 with L22F, V43I, V239A, L243P, K303G, A352G"}, "B7": {"name": "UGT76G1var8: UGT76G1 variant, mutations E224A_Q266S_Q342E (protein, UniProt Q6VAB4 1-458, looked up, variant E224A Q266S Q342E)", "UDP-glycosyltransferase 76G1": "B1 UDP-glycosyltransferase 76G1 with L22F, V43I, E224A, V239A, Q266S, Q342E"}, "B8": {"name": "UGT76G1var10: UGT76G1 variant, mutations A33G_L246F_Q342E (protein, UniProt Q6VAB4 1-458, looked up, variant A33G L246F Q342E)", "UDP-glycosyltransferase 76G1": "B1 UDP-glycosyltransferase 76G1 with L22F, A33G, V43I, V239A, L246F, Q342E"}, "B9": {"name": "UGT76G1var16: UGT76G1 variant, mutations F265I_P272A_I335V (protein, UniProt Q6VAB4 1-458, looked up, variant F265I P272A I335V)", "UDP-glycosyltransferase 76G1": "B1 UDP-glycosyltransferase 76G1 with L22F, V43I, V239A, F265I, P272A, I335V"}, "B10": {"name": "UGT76G1var9: UGT76G1 variant, mutations E231A_D301N_G348P (protein, UniProt Q6VAB4 1-458, looked up, variant E231A D301N G348P)", "UDP-glycosyltransferase 76G1": "B1 UDP-glycosyltransferase 76G1 with L22F, V43I, E231A, V239A, D301N, G348P"}, "B11": {"name": "UGT76G1var14: UGT76G1 variant, mutations A239I_F265I_V396F (protein, UniProt Q6VAB4 1-458, looked up, variant A239I F265I V396F)", "UDP-glycosyltransferase 76G1": "B1 UDP-glycosyltransferase 76G1 with L22F, V43I, V239I, F265I, V396F"}},
  "experiment": "Directed evolution of UGT76G1, Rebaudioside D to Rebaudioside M, round 1 (Example 26)",
  "format": "biochemical",
  "details": "100 μL fresh lysate, 0.5 mM Rebaudioside D, 30° C., pH 7.2",
  "description": "Lysis was performed by addition of Bugbuster® Master mix (Novagen®) to the thawed cells and the lysate was recovered by centrifugation. Activity tests were performed with 100 μL of fresh lysate that was added to a solution of Rebaudioside D (final concentration 0.5 mM), MgCl2 (final concentration 3 mM) and UDP-Glucose (final concentration 2.5 mM) in 50 mM phosphate buffer pH 7.2.\nThe reaction was allowed to run at 30° C. and samples were taken after 2, 4, 7 and 24 h. to determine conversion and initial rate by HPLC (CAD detection) using the analytical method that was described above for the transformation of Rebaudioside D to Rebaudioside M. The results are depicted in the following table.",
  "note": "Changes are numbered by the printed parent chain.",
  "data": [
    {"molecule": "B1", "values": [
      {"measurement": "conversion Reb D to Reb M after 24 h", "result": 0.2, "unit": "%"},
      {"measurement": "initial rate", "result": "−6.0E+04", "unit": "Reb M area/min"}
    ]},
    {"molecule": "B2", "values": [
      {"measurement": "conversion Reb D to Reb M after 24 h", "result": 0.4, "unit": "%"},
      {"measurement": "initial rate", "result": "3.8E+04", "unit": "Reb M area/min"}
    ]},
    {"molecule": "B3", "values": [
      {"measurement": "conversion Reb D to Reb M after 24 h", "result": 5.6, "unit": "%"},
      {"measurement": "initial rate", "result": "1.5E+06", "unit": "Reb M area/min"}
    ]},
    {"molecule": "B4", "values": [
      {"measurement": "conversion Reb D to Reb M after 24 h", "result": 0.7, "unit": "%"},
      {"measurement": "initial rate", "result": "7.2E+05", "unit": "Reb M area/min"}
    ]},
    {"molecule": "B5", "values": [
      {"measurement": "conversion Reb D to Reb M after 24 h", "result": 0.2, "unit": "%"},
      {"measurement": "initial rate", "result": "−3.3E+04", "unit": "Reb M area/min"}
    ]},
    {"molecule": "B6", "values": [
      {"measurement": "conversion Reb D to Reb M after 24 h", "result": 0.5, "unit": "%"},
      {"measurement": "initial rate", "result": "8.7E+04", "unit": "Reb M area/min"}
    ]},
    {"molecule": "B7", "values": [
      {"measurement": "conversion Reb D to Reb M after 24 h", "result": 0.5, "unit": "%"},
      {"measurement": "initial rate", "result": "2.3E+04", "unit": "Reb M area/min"}
    ]},
    {"molecule": "B8", "values": [
      {"measurement": "conversion Reb D to Reb M after 24 h", "result": 0.3, "unit": "%"},
      {"measurement": "initial rate", "result": "−7.7E+02", "unit": "Reb M area/min"}
    ]},
    {"molecule": "B9", "values": [
      {"measurement": "initial rate", "result": "5.8E+06", "unit": "Reb M area/min"}
    ]},
    {"molecule": "B10", "values": [
      {"measurement": "conversion Reb D to Reb M after 24 h", "result": 52.0, "unit": "%"},
      {"measurement": "initial rate", "result": "4.9E+07", "unit": "Reb M area/min"}
    ]},
    {"molecule": "B11", "values": [
      {"measurement": "conversion Reb D to Reb M after 24 h", "result": 5.3, "unit": "%"},
      {"measurement": "initial rate", "result": "1.5E+06", "unit": "Reb M area/min"}
    ]}
  ]
}
